In patent EP4778941A1, “HER3/MET BINDING MOLECULE AND PHARMACEUTICAL USE THEREOF” (priority 2023, dated 2025):
Read-outs that look alike come from different tables or passages of the source.

Tests used:
[1] = target: Human HER3 protein on the cell surface (human) (UniProt P21860); test: FACS on MDA-MB-453 cells (HER3 single-positive)
[2] = target: Human HER3 and MET proteins together on HER3/MET double-positive cells (human) (UniProt P21860); test: FACS on HCC827 Osimertinib-resistant cells (HER3/MET double-positive)
[3] = target: Human HER3 protein on the cell surface (human) (UniProt P21860); test: cell-based or functional assay
[4] = target: Human HER3 and MET proteins together on HER3/MET double-positive cells (human) (UniProt P21860); test: cell-based or functional assay
[5] = target: Human MET protein on the cell surface (human) (UniProt P08581); test: cell-based or functional assay
[6] = target: Human HER3 and MET proteins together on HER3/MET double-positive cells (human) (UniProt P21860); test: cell-based or functional assay; remark: listed apart in the source
[7] = target: Human MET protein on the cell surface (human) (UniProt P08581); test: FACS on NCI-H1703 cells (MET single-positive)

Sequence of Human MET protein on the cell surface (human) (P08581 25-1390): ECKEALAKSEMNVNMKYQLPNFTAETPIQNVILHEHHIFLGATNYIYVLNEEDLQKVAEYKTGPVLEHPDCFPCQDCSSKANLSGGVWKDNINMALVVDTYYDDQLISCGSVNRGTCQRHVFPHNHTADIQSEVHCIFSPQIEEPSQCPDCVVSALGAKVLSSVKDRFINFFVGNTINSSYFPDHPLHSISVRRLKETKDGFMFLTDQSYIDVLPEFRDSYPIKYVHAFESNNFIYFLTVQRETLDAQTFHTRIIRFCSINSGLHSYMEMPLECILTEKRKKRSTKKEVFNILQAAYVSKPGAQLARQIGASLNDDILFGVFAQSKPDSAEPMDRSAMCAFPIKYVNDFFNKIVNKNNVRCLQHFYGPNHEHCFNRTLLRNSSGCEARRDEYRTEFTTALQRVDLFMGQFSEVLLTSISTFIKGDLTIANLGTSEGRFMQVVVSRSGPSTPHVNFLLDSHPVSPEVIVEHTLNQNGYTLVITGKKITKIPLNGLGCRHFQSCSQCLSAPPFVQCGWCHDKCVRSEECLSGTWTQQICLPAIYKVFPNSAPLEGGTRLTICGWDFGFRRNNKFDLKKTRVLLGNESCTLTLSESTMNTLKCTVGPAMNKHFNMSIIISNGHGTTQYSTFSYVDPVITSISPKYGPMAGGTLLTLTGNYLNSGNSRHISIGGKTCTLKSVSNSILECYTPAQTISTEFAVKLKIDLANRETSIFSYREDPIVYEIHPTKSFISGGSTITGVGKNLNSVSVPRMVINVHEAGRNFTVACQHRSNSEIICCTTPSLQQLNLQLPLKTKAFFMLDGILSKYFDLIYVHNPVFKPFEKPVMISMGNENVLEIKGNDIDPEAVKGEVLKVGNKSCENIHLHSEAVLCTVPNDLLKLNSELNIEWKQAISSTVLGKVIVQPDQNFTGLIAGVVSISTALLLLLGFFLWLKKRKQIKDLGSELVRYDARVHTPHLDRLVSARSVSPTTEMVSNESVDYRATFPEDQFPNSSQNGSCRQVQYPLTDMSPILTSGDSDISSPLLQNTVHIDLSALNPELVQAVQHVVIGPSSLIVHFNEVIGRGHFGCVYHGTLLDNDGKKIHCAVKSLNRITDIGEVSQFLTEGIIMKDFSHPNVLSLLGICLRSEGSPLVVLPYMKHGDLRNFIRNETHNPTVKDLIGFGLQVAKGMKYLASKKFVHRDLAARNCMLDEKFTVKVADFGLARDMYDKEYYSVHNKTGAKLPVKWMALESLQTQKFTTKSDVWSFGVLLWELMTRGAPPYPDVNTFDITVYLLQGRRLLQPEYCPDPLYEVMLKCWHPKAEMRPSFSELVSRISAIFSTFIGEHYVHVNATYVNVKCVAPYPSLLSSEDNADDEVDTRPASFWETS

Maximum fluorescence value [1]: 74
Maximum fluorescence value [2]: 74
Maximum fluorescence value [7]: 74
Substance: IgG1 isotype control antibody
Minimum cell viability (%) [3]: 92.9%
Minimum cell viability (%) [4]: 90.9%
Minimum cell viability (%) [5]: 78.6%
Minimum cell viability (%) [6]: 102%
